Here are results for 41 sequences from the nanobody polyreactivity screen of Harvey et al. (2022).

This data set in a line: yeast display, Sf9 membrane polyspecificity reagent, FACS + sequencing; frameworks hold sequencing errors. The gist of the method: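 Sorting gates, low and high (top ~1%), were placed on anti-HA fluorescence to track expression and on streptavidin fluorescence to track reagent binding. A clone's polyreactivity label is taken from the gate it came out of. The reagent was 10% biotinylated, detergent-solubilized Sf9 membrane, applied for 1 hour at 4 °C to galactose-induced yeast display cells.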
Regarding “PVQLVESGGGLVQAGGSLRLSCAASGFIFDSYPMGWYRQAPGKERELVAAISYSAGSTSYADSVKGRFTISRDNAKNTVYLQMKSLKPEDTAVYYCNARYYPLYSNSYDSWGQGTQVTVSS”, the “polyreactivity (PSR sort gate)” value is “low polyreactivity”.
To “PVQLVESGGGLVQAGGSLRLSCAASGFIFYLYAMGWYRQAPGKERELVASINVSGASTRYADSVKGRFTISRDNSKNTVYLQMKSLKPEDTAVYYCAAAITELYFEAYYYWGQGTQVTVSS” belongs “low polyreactivity”; to “PVQLVESGGGLVQAGGSLRLSCAASGFIFYYNTMGSYRQAPGKERELVAAINSGGSTYYADSVKGRFTISRDNAKNTVYLQMNSLKPEDTAVYYCAKRYAVSSGYYYWGQGTQVTVSS”, “high polyreactivity”; to “PVQLVESGGGLVQAGGSLRLSCAASGFIYPRYAMGWYRQAPGKEREVVAAISYSGGSTYYADSVKGRFTISRDNAKNTVYLQMNSLKPEDTAVYYCAARLFKDSWMDYWGQGTQVTVSS”, “high polyreactivity”.
Then “PVQLVESGGGLVQAGGSLRLSCAASGFTFDRYAMGWYRQAPGKERELVAAISRSGATTYYADSVKGRFTISRDNAKNTVYLQMNSLKPEDTAVYYCNADDVWYEYDYWGQGTQVTVSS”, with “high polyreactivity”; and “PVQLVESGGGLVQAGGSLRLSCAASGFTFYSYAMGWYRQAPGKEREFVAAGSTYYADSVKGRFTISRDNAKNTVYLQMNSLKPEDTAVYYCAADPWIYVQSYGFWGQGTQVTVSS”, with “low polyreactivity”.
Then “PVQLVESGGGLVQAGGSLRLSCAASGIIFSDYAMGWYRQGPGKERELVAAITGGVSKYYADSVKGRFTISRDNAKNTVYLQMNSLKPEDTAVYYCNTDAWLETPVSGYSWGQGTQVTVSS”, with “low polyreactivity”; and “PVQLVESGGGLVQAGGSLRLSCAASGRIFVYNVMGWSRQATGKERELVAASRWSGGSTYADSVNGRYTISRDQAKNPVYLQIHSLKPEDTADYYCAARHYRRGDSWAQGTQVTVSS”, with “high polyreactivity”; and “PVQLVESGGGLVQAGGSLRLSCAASGRTFRSNCMGWYRQAPAKERDLVATISEGGGSTYYADSVKGRFTISRDHAKNNVYLQMNSLKTEYTAVYYCAADKWYVLHYLDMNYWGQGTQVTVSA”, with “high polyreactivity”.
With “PVQLVESGGGLVQAGGSLRLSCAASGRTFYAFDMGWSRQAPGKERELVSRITSGGSTDYADSVKGRFTSSRDNAKNTVYLQMNSLKPEDTAVYYCAAETSYAVSTGDHFDYWGQGTQVTVSS”, the “polyreactivity (PSR sort gate)” value was “high polyreactivity”.
Consider “PVQLVESGGGLVQAGGSLRLSCAASGSTFYPNAMGWYRQAPGKEWELVAASTAGGSTYYADSVKGRFTISRDNAKNTVYLQMTSLKPEDTAVYSCAADFYWYWWQDWYDYWGQGTQVTVSS”, for which the “polyreactivity (PSR sort gate)” value is listed as “high polyreactivity”.
For “PVQLVESGGGLVQAGGSLRLTCAASGFTLTSNAMGWYRQAPGKERELVAAISKSGGSTHYADSVKGRFTISRDNAKNTVYLQMNSLKAEDTAVYYCATPYHRRFKGGDYWGQGTQVSVSS”, the “polyreactivity (PSR sort gate)” value is listed as “high polyreactivity”.
On to “PVQLVESGGGLVQAGGSLRVSCAASGSIFYKNAMGWYRQAPGKEREMVAAITSSGGRTYYADSVKGRFTISRDNPKNTVYLQMNSLKPEDTAVFYCAAVYGYDKYDSWGLGTQVTVSS”, for which the “polyreactivity (PSR sort gate)” value was “low polyreactivity”.
Then “PVQLVESGGGLVQEGGSLRLICAASGRTFYGYAMGCYRPAPGKEREFVAAINSSGGTTYYADSVKGRCTISRDNAKNTVYRAMNSVKPEDTAFSYCAAVYSRIRRWPGYNAYDYWGHGTQVTVSS”, with “high polyreactivity”.
Then “PVQLVESGGGVVQAGGSLRLSCAASGSTFEYYAMGWYRQAPGKERELVAAITRRGGSTYSADSVKGRFTISRDNAKNTVYVQMNSLKPEDTAVYYCAAKGFPRSGYPYQAQHMYYWGQGTQVTVSS”, with “low polyreactivity”.
To “PVQLVVSGGGLVQAGGSLRLSWAASGLIFRYYAMGWYRQAPGKERELVATIRGGGSTYYADSVKGRFTISRDKAKNTVTLQMNSLKPEATAVDYSAADPYSYGARGARGDYWGQGTQGTVSS” belongs “low polyreactivity”; to “QAELVESGGGLVQAGGSLRLSCAASGFTFTAYPMGWYRQAPGKERELVAAISYRGGRTNYAYSVKGRFTISRDNAKNTVYLQMNRLKPEDTAVYYCAARPRISTREMDYWGQGTQVTVSS”, “high polyreactivity”.
For “QAQLQESGGSLVKAGGGLRLSCAASGYISVGSVMGRYRQAPSKERELVASIDQGANTNYADSVKGRFTISRDNGKNNVYLQMNSLKPEDTAVYYCATETTYILNYWGQGTEVTVSS”, the “polyreactivity (PSR sort gate)” value is reported as “low polyreactivity”.
Take “QAQLVESGGGLVQAGGSLRLSCAASGFTFSFNAMGWYRQAPGKERELVAAISSTGSSTYYADSVKGRFTISRDNAKNTVYLQMNSLKPEDTAVYYCAASRRGYRPRRYDYWGQGTQVTVSS”: the “polyreactivity (PSR sort gate)” value was “high polyreactivity”.
On to “QDHLVDSGGGLVQAGGSLRLSCAAYGFTFYYNTMGWYRQAPGKERQLVAAISYSAGSTFYADSVKGRFTISRDNAKNTVYLQMNSLKPEDTAVYYCAAGRPRLHKGYHFGYWGQGTQVTVSS”, for which the “polyreactivity (PSR sort gate)” value is “low polyreactivity”.
“QDHLVESGGGLVPAGGSLRLSCAASGRIVYYVMGRYRQAPGKERELVAAISTRGGSTYYADSVKGRFTISRDNPKNTVYLQMNSLKAEDTAVYYCADSSLLTRYNSWGQGTQVTVSS”: the “polyreactivity (PSR sort gate)” value is on record as “high polyreactivity”.
In the case of “QDHLVESGGGLVQAGGSLRLICAASGSTFTQYTMGWYRQAPGKERELVAAISSGGGRTYYADSVKGRFTISRDNAKNTVYLQMYSLKPEDTAFYYCAADYQNSRRGRGNSQYYYWGQGTQVTVSS”, the “polyreactivity (PSR sort gate)” value is on record as “low polyreactivity”.
In the case of “QDHLVESGGGVVQAGGSLRLSCAATGSTIYRYPMGSYRQAPGNERELVAAISTRGGSTYYADSVKGRFTISRDNRKNTVYLQMNSLKPVDTAVYYCAAKCGSPDDYDYWGQGTQVTVSS”, the “polyreactivity (PSR sort gate)” value is given as “high polyreactivity”.
Then “QDKLVESGGGLVQAGGSLRLSCAASGSTSRDNAMVWYRQAPGKERELVAAITVIDGTTYYADSVKGRFTISRDNAKNTLYLQMNSLKPEDTAVYYCAADTIWFEYYYWGQGTQVTVSS”, with “low polyreactivity”.
To “QDQHVESGGGLVQAGGSLRLICDASGTFKFSAMGWYRQAPGKERELVARISRGGTTNYADSVKGRFTISRDNAKNTVYLQMNSLKPAETAVYYCAAPLRYVYSNSYWAYRYDYSGQGTQVTVSS” belongs “high polyreactivity”.
Then “QDQHVESGGGLVQAGGSLRLSCAASGLTFDQYAMGWYRQAPGKERELVAAISGSDSTYYADSVKGRFTISRDNAKNTVYLQMNSLKPEDTAVYYCAASGDYVNIITGERFDARLYDYWGQGTQVTVSS”, with “low polyreactivity”.
Turning to “QDQHVESGGGLVQAGGSLRLSCAASGNTFIRNVMGWYRLAPGKERELVAGIRTGGSTFYADSVKGRFTISRDNAKNTVYLQMNSLKPEDTAVYYCKAEVGDEGNLPYVIRPMDYWGQGTQVTVSS”, the “polyreactivity (PSR sort gate)” value is “low polyreactivity”.
In the case of “QDQHVESGGGLVQAGGSLRLSCAASGRIYDPYAMGWYRPAPGKERELVATISYSDGSTYYADSVKGRFTISRDNAKNTVYLQMNSLKPEDTAVYYGNAEFVGWWGYPTVLRLEYWGQGTQVTVSS”, the “polyreactivity (PSR sort gate)” value was “low polyreactivity”.
To “QDQHVESGGGLVQAGGSLRLSCAASGSNFDVYAMGWYRQAPGKERELVATISYGDSSTYYADSVKGRFTISRDNAKNTVYLQMNSLKPEDTAVYYCAADYLTAPRWRQWGVMDYWGQGTLVTVSS” belongs “low polyreactivity”; to “QDQHVESGGGLVQAGGSLRLSCAASGSTFAWYSMGWYRQAPGKERELVASITSTGSTNYADSVKGRYTISRDNAKNTVYLQMNSLKPVDTAVYYCAAAVRAWYLRLYDYWGQGTQVTVSS”, “high polyreactivity”; to “QDQHVESGGGLVQAGGSLRLSGAASGRTVGWYAMGWYRQAHGKVRELVAAITSSVDSTYYADSVKGRFTISRDNAKNTVYLLMNRLKPEDTAVYYCAADYDDGFYLYDYWGQGTQVTVSS”, “low polyreactivity”.
For “QDQHVESGGGLVQAGGSQRLSCAAYGFIFWIYAMGWYRQAPGKEREFVAVITYRGDTTYYADSVKGRFTISRDNAKNTVFLQMNSMKPEDTAVYYCAAYTVQKYGYWGQGTQVTVSS”, the “polyreactivity (PSR sort gate)” value is “low polyreactivity”.
To “QDQHVESGVGLVQAGGSLRLSCAASGSIFGNYAMGWYRQAPGKERELVAAIRVSDGRTYDADSVKGRFTISRDNAKNTVYLQMNSLKPEDTAVYYCAAESESSYGPYDYWGQGTQVTVSS” belongs “low polyreactivity”.
To “QDQHVESGVGLVQEGGSLRLSCAASGIIIDEYAMGLYRQAPGKERELVAAISSRGTNTYYADSVKGRFTISRDNAKNTVYLQMNSLKPEDTAVYYCAARRPPVTRHFGYWGQGTQVTVSS” belongs “high polyreactivity”; to “QDQHVETGGGLVQAGGSLRLSCAASGRTFKFYAMGWYRQAHGKERELVAAITSGGKTNYADSVKGRFTISRDNAKNTVYLQLNSLKPEDTAVYYCKADAGRLSNRYRLWTYGYWGQGTQVTVSS”, “low polyreactivity”; to “QDQIVESGGGLVQAGGSLRLIFAASGLTIARNAMGWYRQAPGKERELVAAISFSGGSTYYADSVKGRFTISRDNAKNTVYLLMNSLKPEDTAVYYCNTLLRRDFNYWGQGTQVTVSS”, “high polyreactivity”.
Then “QDQIVESRGRLVQAGGSLRLSCAASGRTFKPYAMGWYRQAPGKERELVARISGSGGSTYYADSVKGRFTISRDNAKNTVYLQMNSLKPEDTAVYDCATTPYYWFYYWGQGTQVTVSS”, with “low polyreactivity”.
On to “QDQIVESWGGLVQSGGSLRLTCAASGRTFSTYAMGWYRQAPGKERELVAAISWRGARTYYADSVKGRFTISRDNAKNTVYLQMNSLKPEDTAVYYCAAAPYRYRRYEYWGQGTQVTVSS”, for which the “polyreactivity (PSR sort gate)” value is on record as “high polyreactivity”.
For “QDQLEESGGGLLQARGSLRLSCAASGSIFTCNGRGWYRQAPGKERELVAAISNGASTNYADSVKGRFTISRDNAKNSVYLQMNSLKPEDTAVYYCAAKSTGRYDYWGQGTQGTVSS”, the “polyreactivity (PSR sort gate)” value is on record as “low polyreactivity”.
In the case of “QDQLEESGGGLVHAGGSLRLSCAASGRIFLTNAMGWYRQAPGKERELVAAITSGGSTYYADSVKGRFTISRDNEMNTVYLQMNSLNPEDTAVYYCNAYVTSGYANEYYWGQGSQVTVSS”, the “polyreactivity (PSR sort gate)” value is listed as “low polyreactivity”.
Then “QDQLEESGGGLVQAGGSLRLSCAASGFIFNHYAMGWYRQAPGKEREFVAAISWSGGSTYYADSVKGRFTISRDYAKNTVYLQMNSLKPEDTAVYYCAASYNGLWHGDYDYWGQGTQVTVSS”, with “low polyreactivity”.
